Assay results published in patent US20260104418A1.
Residue numbers refer to the chain shown, from its start.

B1: Ab 360 (antibody, V domains shown)
VH: VVQLQQSGPELVKPGASVKMSCKASGYTFTSYLMHWVRQKPGLGLDWIGYINPYNDGTNYNAKFIDKATLTSDKTSSTAYMELSSLTSEDSAIYYCTRGDYWGQGTSVTVSS
VL: DIVMTQSPSSLAVTAGEQVTMSCKSSQSLLNSGNQKNYLTWYQQKPGQPPKLLIYWASIRQSGVPDRFTGSGSGTDFTLTISSVQAEDLAVYYCLNDYGFPLTFGAGTKLELK
B2: Ab 301 (antibody, V domains shown)
VH: VVQLQQSGPELVKPGASVKMSCKASGYTFTSFLIHWVRQKPGLGLEWIGYINPYDYGINYNVKFMDKVTLTSDKTSSTAYMELSSLTSADSAIYYCTRGDYWGQGTSVIVSS
VL: B1 VL with A15T, S22N, P46T, P49S, I59T
B3: Ab 347 (antibody, V domains shown)
VH: EVQLQQSGPELVKPGASVKMSCKASGYTFTSYLIHWVKQKPGQGLEWIGYINPYNDATYYNEKFKAKATLTSDKSSSTAYMELSSLTSEDTAIYYCTRGDYWSQGTSVTVSS
VL: B1 VL with A12T, Q18K, I59T, A90T, G99S
B4: Ab 331 (antibody, V domains shown)
VH: EVQLQQSGPELVKPGASVRMSCKASGYTFTSYIMHWVKQKPGQGPEWMGYINPYNDGTNYNEKFKDKATLTSDKSSSTAYMDLSSLTSEDSAVYYCTRGDYWGQGTSVTVSS
VL: B1 VL with A12T, Q18K, I54F, I59T, R60K, Q61K, G74R, G99S
B5: Ab 358 (antibody, V domains shown)
VH: VVQLVESGGDFVQPGGSRKLSCAVSGFTFSSFGMHWVRQAPEKGLEWVAYISSGTTNIYYADTVKGRFTVSRDNPKNSLFLHMTSLRSEDTAMYYCVRSGYYGNSLDYWGQGTPLTVSS
VL: DIVMTQSPSSLTVTAGEKVTMSCKSSQSLFNSGNQRNYLTWYQQKPGQPPKLLIYWASTRESGVPDRFTGSGSGTGFTLTISSVQAEDLAFYYCQNVYIYPLTFGLGTKLELR
B6: Ab 416 (antibody, V domains shown)
VH: EFQLQQSGPELVKPGASVKISCKASVYSFTGYNMNWVKQSNGKSLEWIGVINPNYGNTNYNQRFKGKATLTVDQSSSTAYMQLNSLTSEDSAVYYCARSEDYYNIRGASWGQGTLVTVSA
VL: QIVLTQSPAIMSASPGQKVTITCSASSTINYMHWYQQKLGSSPKLWIYDTSKLAPGVPARFSGSGSGTSYSLTISSMEAEDAASYFCHQWSSYPPTFGSGTKLELK
B7: Ab 307 (antibody, V domains shown)
VH: DVKLVESGGGLVKPGGSLKLSCAASGFTFSSYTMSWVRQTPEKRLEWVATIIIGGSYTYYPDSVKGRFTISRDNAKNTLYLQMSSLKSEDTAMYYCTRLVKGNAMDYWGQGTSVAVSS
VL: DIVMTQSPSSLTVTTGEKVTMSCKSSQSLLNSGNQKNYLSWYQQIPGQPPKLLFYWASTRESGVPDRFTGSGSGTDFTLTISNVQAEDLAVYYCQNDYSYPFTFGAGTKLELR
B8: Ab 409 (antibody, V domains shown)
VH: QVQLQQSGAELARPGASVKLSCKASGYTFTSYGISWVKQRTGQGLEWIGEISPRSGNTYYNEKFKGKATLTADKSSSTAYMELRSLTSEDSAVYFCATGVITTVIPTDWYFDVWGTGTTVTVSS
VL: DIQMTQTTSSLSASLGDRVTISCRASQDISNYLNWYQQKPDGTVKLLIYYTSRLHSGVPSRFSGSGSGTDYSLTISNLEPEDIATYYCQHYSKLPPTFGSGTKLEIK
B9: Ab 432 (antibody, V domains shown)
VH: QIQLQQSGAELARPRASVKLSCKASGYTFTSDVISWVKQRPGQGLEWIGESYLRNGNTYYNENFKGKATLTADKSSSTAYMELRSLTSEDSAVYFCARSYYGNSFAYWGQGTLVTVSA
VL: DIVMTQSPSSLTVTAREKVTMNCKSTQSLLNSGNQKNYLTWYQQKPGQPPKLLIYWASTRESGVPDRFTGSGSGTDFTLTISSVQAEDLAVYYCQNAYYYPFTFGGGTKLEIK

target: Claudin-18.1 (CLDN18.1) (human) (UniProt P56856); assay: FACS titration of AF647-labelled IgG on HEK293T CLDN18.1 cells
Sequence (P56856 whole entry): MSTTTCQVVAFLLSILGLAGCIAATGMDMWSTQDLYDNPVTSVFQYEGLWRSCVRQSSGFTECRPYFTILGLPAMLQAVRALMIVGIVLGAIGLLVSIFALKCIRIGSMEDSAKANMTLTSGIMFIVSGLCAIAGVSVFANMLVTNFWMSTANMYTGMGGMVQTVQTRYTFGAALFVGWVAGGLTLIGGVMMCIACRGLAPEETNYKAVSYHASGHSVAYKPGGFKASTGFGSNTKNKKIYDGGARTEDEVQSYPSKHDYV

| EC50 | Binder |
| --- | --- |
| 1760 nM | B1 |
| 675 nM | B2 |
| 1230 nM | B3 |
| 1680 nM | B4 |
| 1520 nM | B5 |

target: mouse CLDN18.2 (mouse) (UniProt P56857); assay: FACS titration of AF647-labelled IgG on HEK293T mouse CLDN18.2 cells

| EC50 | Binder |
| --- | --- |
| 57.7 nM | B1 |
| 1610 nM | B2 |
| 1350 nM | B3 |
| 810 nM | B4 |
| 591 nM | B6 |
| 68.8 nM | B7 |
| 1040 nM | B8 |
| 40.6 nM | B5 |
| 96.8 nM | B9 |
